The target in assay [1] is JR-FL SOSIP.R6-IZ-D7324 gp140 expressed in 293S GnTI^-/- cells (HIV-1 isolate JR-FL (subtype B)). Put plainly: SEC.
Assay [2] shares this target. Put plainly: native gel or EMSA. (In general: Mobility shift assays separate free from complexed probe on a gel.)
Assay [3] deals with KNH1144 SOSIP.R6 MPER gp140 expressed in 293S GnTI^-/- cells with furin (HIV-1 isolate KNH1144 (subtype A)). As to the kind of experiment: SEC. For orientation: In gel filtration, larger molecules generally elute earlier.
For assay [4], the target named is JR-FL SOSIP.R6-IZ-D7324 gp140 expressed in 293T cells (HIV-1 isolate JR-FL (subtype B)). As to the kind of experiment: native gel or EMSA.
Assay [5] has as its target KNH1144 SOSIP.R6 MPER gp140 expressed in 293T cells with furin, without kifunensine (HIV-1 isolate KNH1144 (subtype A)). As to the kind of experiment: native gel or EMSA.
The target in assay [6] is KNH1144 SOSIP.R6 MPER gp140 expressed in 293T cells with furin and kifunensine (HIV-1 isolate KNH1144 (subtype A)). Put plainly: native gel or EMSA.

With “JR-FL SOSIP.R6-IZ-D7324 gp140 expressed in 293S GnTI^-/- cells”, the stoichiometry N in assay [1] and in assay [2] was 3 each time.

In assay [3], “KNH1144 SOSIP.R6 MPER gp140 expressed in 293S GnTI^-/- cells with furin (complex)” returned a stoichiometry N of 3.

In assay [4], “JR-FL SOSIP.R6-IZ-D7324 gp140 expressed in 293T cells” showed a stoichiometry N of 3.

For “KNH1144 SOSIP.R6 MPER gp140 expressed in 293T cells with furin, without kifunensine (complex)”, the stoichiometry N in assay [5] stood at 3.

Take “KNH1144 SOSIP.R6 MPER gp140 expressed in 293T cells with furin and kifunensine (complex)”: the stoichiometry N in assay [6] was determined as 3.

The stoichiometry N is the number of molecules, sites or subunits per partner or assembly.
